From US20220204627A1 (WILLIAM ROBERT ARATHOON LIVING TRUST DATED AUGUST 29 2016, published 2022) come the findings set out here.

Assay [1] deals with T1, human P Glycoprotein (Pgp) / Multidrug resistance protein 1 (MDR1), gene ABCB1, on cells (human, UniProt P08183 1-1280). Put plainly: cell-based or functional assay.
Assay [2] has as its target T1, human P Glycoprotein (Pgp) / Multidrug …. The assay can be described thus: FACS on 293T-B1OX cells (overexpressing MDR1).
Another assay has as its target T2, human CD47 on cells (human, UniProt Q08722 19-323).
T2 construct: also called KT14 (target name); leukocyte surface antigen CD47
Put plainly: flow cytometry on human red blood cells (h408 RBC), Alexa Fluor 647 channel.

Assay [3] deals with T3, cynomolgus CD47 on erythrocytes (cynomolgus, UniProt A0A5F8AK49 19-323 (rhesus entry)).
T3 construct: whole, on cells; also called cynomolgus RBCs
The assay can be described thus: flow cytometry on cynomolgus red blood cells (cy807 RBC), Alexa Fluor 647 channel.

For assay [4], the target named is T1, human P Glycoprotein (Pgp) / Multidrug …. The assay can be described thus: FACS on 293T cells overexpressing MDR1 (column MDR1 FACS).
Assay [5] has as its target T4, human CD47-Fc fusion protein (R&D systems) (human, UniProt Q08722 19-141).
T4 construct: Bought (R&D systems); also called Fc-tagged CD47; not shown: Fc part of the bought fusion protein
The assay can be described thus: ELISA, Fc-tagged CD47 coated on the plate.

Assay [6] concerns the target T1, human P Glycoprotein (Pgp) / Multidrug …. Put plainly: flow cytometry on 293T cells stably expressing human ABCB1 (293T_ABCB1_OX; the cells also carry CD47); 293T_ABCB1_OX cells: Pgp overexpressed, CD47 also present.
Assay [7] concerns the target T5, EGFR on 293T cells overexpressing EGFR (UniProt P00533 25-1210, limits assumed).
T5 construct: whole, on cells
Put plainly: FACS on 293T-EGFR OX cells.

In assay [8] the target is T4, human CD47-Fc fusion protein (R&D …). Put plainly: ELISA, plate coated with human CD47-Fc. Also on record: Bmax: unit not given here.
For assay [9] the target is unchanged. The assay can be described thus: ELISA, binding to CD47. Also on record: Bmax: unit not given here.
Assay [10] has the same target. The assay can be described thus: ELISA, plate coated with human CD47-Fc.
For assay [11] the target is unchanged. The assay can be described thus: ELISA, binding to CD47.

B1: anti-MDR1 antibody MRK16 (recombinant, human IgG1/Kappa) (antibody, V domains shown)
VH: EVILVESGGGLVKPGGSLKLSCAASGFTFSSYTMSWVRQTPEKRLEWVATISSGGGNTYYPDSVKGRFTISRDNAKNNLYLQMSSLRSEDTALYYCARYYRYEAWFASWGQGTLVTVSA
VL: DVLMTQTPVSLSVSLGDQASISCRSSQSIVHSTGNTYLEWYLQKPGQSPKLLIYKISNRFSGVPDRFSGSGSGTDFTLKISRVEAEDLGVYYCFQASHFPRTFGGGTKLEIK
As to B1, in assay [1], the “Vincristine IC50 (nM) on N6/ADR cells with antibody at 50 ug/mL” value (“Vincristine IC50 (nM) on N6/ADR cells” below) was found to be 0.734 nM. This molecule gave an EC50 in [2] of 58.8 nM. Moreover, in the assay with human CD47 on cells, the “R4 (percent of red blood cells in the positive gate R4)” value came to 0.867% and the binding result is reported as “no binding”. Further, in assay [3], the “R4 (percent of red blood cells in the positive gate R4)” value amounted to 0.801% and the binding result is listed as “no binding”.

B2: UIC2 DD HC::cetuximab KK HC::MRK16 LC (bispecific antibody, V domains shown)
VH 1: AVQLQQSGPELVKTGASVKISCKASGYSFSNYYIHWVKQSHGKSLEWIGFISCYNGATFYNQKFKGKATFTVDTSSSTAYMKFNSLTFEDSAVYYCARLPIQFGNFYPMDYWGQGTSVTVSS
VH 2: not shown
VL: DVLMTQTPVSLSVSLGDQASISCRSSQSIVHSTGNTYLEWYLQKPGQSPKLLIYKISNRFSGVPDRFSGSGSGTDFTLKISRVEAEDLGVYYCFQASHFPRTFGGGTKLEIK
notes: DD / KK charge pair substitutions in the IgG1 heavy chains; common light chain
For the molecule B2, in assay [4], the binding result is given as “no binding”.

B3: 15D3 IgG1 KK/5F9 IgG1 DD/UIC2 (bispecific antibody)
chain 1: not shown
chain 2: not shown
chain 3: DVVMTQTPRSLPVSLGDQASISCRSSQSLLHSNGNTYLHWYLQKPGQSPKLLIYKVSNRFSGVPDRFSGSGSGTDFTLKISRVEAEDLGVYFCSQSTHIPPWTFGGGTKLDIKRTVAAPSVFIFPPSDEQLKSGTASVVCLLNNFYPREAKVQWKVDNALQSGNSQESVTEQDSKDSTYSLSSTLTLSKADYEKHKVYACEVTHQGLSSPVTKSFNRGEC
In the case of B3, in assay [5], the Kd came to 1620 nM.

B4: Ab1 (15D3 IgG1 DD / KT14 IgG1 KK / MRK16 VL-Hz1) (bispecific antibody, V domains shown)
VH 1: EVKVVESGGVLVRPGGSLKLSCAASGFTFSRYTMSWVRQTPEKRLEWVATISSGGGNTYYPDSVKGRFTVSRDNAMSSLYLQMSSLRSEDTALYYCARYGAGDAWFAYWGQGTLVTVSA
VH 2: QVQLVQSGAEVKKPGASVKVSCKASGYTFTNYNMHWVRQAPGQRLEWMGTIYPGNDDTSYNQKFKDRVTITADTSASTAYMELSSLRSEDTAVYYCARGGYRAMDYWGQGTLVTVSS
VL: DIVMTQTPLSSPVTLGQPASISCRSSQSIVHSTGQTYLEWYQQRPGQPPRLLIYKISNRFSGVPDRFSGSGAGTDFTLKISRVEAEDVGVYYCFQASHFPRTFGQGTKLEIK
notes: Human IgG1 heavy chains with DD (K392D, K409D) on the 15D3 arm and KK (E356K, D399K) on the KT14 (5F9) arm; kappa light chain
In the case of B4, the “Vincristine IC50 (nM) on N6/ADR cells” value in assay [1] stood at 0.002 nM. Besides, the EC50 in assay [6] is 75.5 nM.

B5: 15D3 DD HC::necitumumab KK HC::MRK16 LC (bispecific antibody, IgG1, V domains shown)
VH 1: EVKVVESGGVLVRPGGSLKLSCAASGFTFSRYTMSWVRQTPEKRLEWVATISSGGGNTYYPDSVKGRFTVSRDNAMSSLYLQMSSLRSEDTALYYCARYGAGDAWFAYWGQGTLVTVSA
VH 2: QVQLQESGPGLVKPSQTLSLICTVSGGSISSGDYYWSWIRQPPGKGLEWIGYIYYSGSTDYNPSLKSRVTMSVDTSKNQFSLKVNSVTAADTAVYYCARVSIFGVGTFDYWGQGTLVTVSS
VL: DVLMTQTPVSLSVSLGDQASISCRSSQSIVHSTGNTYLEWYLQKPGQSPKLLIYKISNRFSGVPDRFSGSGSGTDFTLKISRVEAEDLGVYYCFQASHFPRTFGGGTKLEIK
notes: DD = K392D and K409D, KK = E356K and D399K (EU) in the IgG1 heavy chains; common light chain; also called 15D3DD: necitumumab KK:MRK16; KT3-2KK 15D3DD 1MRK16
For the molecule B5, the EC50 is 110 nM in assay [7] and 33.1 nM in assay [2].

B6: 5F9/UIC2 (5F9 heavy chain with UIC2 light chain) (antibody, human IgG1, V domains shown)
VH: QVQLVQSGAEVKKPGASVKVSCKASGYTFTNYNMHWVRQAPGQRLEWMGTIYPGNDDTSYNQKFKDRVTITADTSASTAYMELSSLRSEDTAVYYCARGGYRAMDYWGQGTLVTVSS
VL: DVVMTQTPRSLPVSLGDQASISCRSSQSLLHSNGNTYLHWYLQKPGQSPKLLIYKVSNRFSGVPDRFSGSGSGTDFTLKISRVEAEDLGVYFCSQSTHIPPWTFGGGTKLDIK
notes: Light chain shuffle construct; human IgG1 / kappa constant regions
For B6, in assay [8], the Bmax was 3.08 and the Kd was 6.3 nM.

B7: 5F9/M89 (5F9 heavy chain with M89 light chain) (antibody, human IgG1, V domains shown)
VH: QVQLVQSGAEVKKPGASVKVSCKASGYTFTNYNMHWVRQAPGQRLEWMGTIYPGNDDTSYNQKFKDRVTITADTSASTAYMELSSLRSEDTAVYYCARGGYRAMDYWGQGTLVTVSS
VL: EIVLTQSPATLSLSPGERATLSCRASQSVGGSYLAWYQQKPGQAPRLLIYGASRRATGIPARFSGSGSGTDFTLTISSLQPEDFASYFCQQTNTFPLTFGGGTKVEIK
notes: as for B6
Consider B7, for which, in assay [8], the Bmax worked out at 4.22 and the Kd was 1510 nM.

B8: 15D3/UIC2 (15D3 heavy chain with UIC2 light chain) (antibody, human IgG1, V domains shown)
VH: EVKVVESGGVLVRPGGSLKLSCAASGFTFSRYTMSWVRQTPEKRLEWVATISSGGGNTYYPDSVKGRFTVSRDNAMSSLYLQMSSLRSEDTALYYCARYGAGDAWFAYWGQGTLVTVSA
VL: DVVMTQTPRSLPVSLGDQASISCRSSQSLLHSNGNTYLHWYLQKPGQSPKLLIYKVSNRFSGVPDRFSGSGSGTDFTLKISRVEAEDLGVYFCSQSTHIPPWTFGGGTKLDIK
notes: as for B6
In assay [9], B8 came in with a Bmax of 3.45 and a Kd of 169 nM.

B9: KBisP1.1 bispecific antibody (15D3 IgG1 DD/5F9 IgG1 KK/MRK16) (bispecific antibody, V domains shown)
VH 1: EVKVVESGGVLVRPGGSLKLSCAASGFTFSRYTMSWVRQTPEKRLEWVATISSGGGNTYYPDSVKGRFTVSRDNAMSSLYLQMSSLRSEDTALYYCARYGAGDAWFAYWGQGTLVTVSA
VH 2: QVQLVQSGAEVKKPGASVKVSCKASGYTFTNYNMHWVRQAPGQRLEWMGTIYPGNDDTSYNQKFKDRVTITADTSASTAYMELSSLRSEDTAVYYCARGGYRAMDYWGQGTLVTVSS
VL: DVLMTQTPVSLSVSLGDQASISCRSSQSIVHSTGNTYLEWYLQKPGQSPKLLIYKISNRFSGVPDRFSGSGSGTDFTLKISRVEAEDLGVYYCFQASHFPRTFGGGTKLEIK
notes: 15D3 VH on human IgG1 with K392D and K409D (DD), 5F9 VH on human IgG1 with E356K and D399K (KK), EU numbering; also called KNJYBisP1.1; KBis1.1
In the case of B9, in assay [1], the “Vincristine IC50 (nM) on N6/ADR cells” value came out at 0.0461 nM. Moreover, in assay [5], the Kd came to 145 nM. In the assay with human CD47 on cells, the “R4 (percent of red blood cells in the positive gate R4)” value was 0.609%. Moreover, in assay [3], the “R4 (percent of red blood cells in the positive gate R4)” value worked out at 0.483% and the binding result was “no binding”. The molecule also registered an EC50 in assay [6] of 40.3 nM.

B10: 5F9/15D3 (5F9 heavy chain with 15D3 light chain) (antibody, human IgG1, V domains shown)
VH: QVQLVQSGAEVKKPGASVKVSCKASGYTFTNYNMHWVRQAPGQRLEWMGTIYPGNDDTSYNQKFKDRVTITADTSASTAYMELSSLRSEDTAVYYCARGGYRAMDYWGQGTLVTVSS
VL: DVLMTQTPLSLPVSLGDQASISCRSSQSIVHSTGNTYLEWYLQKPGQSPKLLIYKVSNRFSGVPDRFSGSGSGTDFTLKISRLEAEDLGVYYCFQGSHFPRTFGGGTRLEIK
notes: as for B6
Regarding B10, in assay [8], the Bmax turned out to be 2.96 and the affinity, expressed as Kd, was 0.257 nM.

B11: 15D3/5F9 (15D3 heavy chain with 5F9 light chain) (antibody, human IgG1, V domains shown)
VH: EVKVVESGGVLVRPGGSLKLSCAASGFTFSRYTMSWVRQTPEKRLEWVATISSGGGNTYYPDSVKGRFTVSRDNAMSSLYLQMSSLRSEDTALYYCARYGAGDAWFAYWGQGTLVTVSA
VL: DIVMTQSPLSLPVTPGEPASISCRSSQSIVYSNGNTYLGWYLQKPGQSPQLLIYKVSNRFSGVPDRFSGSGSGTDFTLKISRVEADVGVYYCFQGSHVPYTFGQGTKLEIK
notes: as for B6
In assay [9], B11 yielded a Bmax of 3.1 and a Kd of 252 nM.

B12: 5F9/MRK16 (anti-CD47 antibody with two 5F9 heavy chains and two MRK16 light chains) (antibody, human IgG1, V domains shown)
VH: QVQLVQSGAEVKKPGASVKVSCKASGYTFTNYNMHWVRQAPGQRLEWMGTIYPGNDDTSYNQKFKDRVTITADTSASTAYMELSSLRSEDTAVYYCARGGYRAMDYWGQGTLVTVSS
VL: DVLMTQTPVSLSVSLGDQASISCRSSQSIVHSTGNTYLEWYLQKPGQSPKLLIYKISNRFSGVPDRFSGSGSGTDFTLKISRVEAEDLGVYYCFQASHFPRTFGGGTKLEIK
notes: Human IgG1 / kappa constant regions; also called KT14/MRK16 monoclonal; KT14_MRK16
Consider B12, for which the “fold decrease in affinity against the un-swapped 5F9 control” value in assay [10] stood at 100 fold. Further, in [8], the Bmax was determined as 2.94 and binding was put at a Kd of 0.17 nM. Also, the “R4 (percent of red blood cells in the positive gate R4)” value with human CD47 on cells was 0.708%. In addition, in assay [3], the “R4 (percent of red blood cells in the positive gate R4)” value amounted to 0.717% and the binding result is reported as “no binding”.

B13: 15D3/MRK16 (anti-MDR1 antibody with two 15D3 heavy chains and two MRK16 light chains) (antibody, human IgG1, V domains shown)
VH: EVKVVESGGVLVRPGGSLKLSCAASGFTFSRYTMSWVRQTPEKRLEWVATISSGGGNTYYPDSVKGRFTVSRDNAMSSLYLQMSSLRSEDTALYYCARYGAGDAWFAYWGQGTLVTVSA
VL: DVLMTQTPVSLSVSLGDQASISCRSSQSIVHSTGNTYLEWYLQKPGQSPKLLIYKISNRFSGVPDRFSGSGSGTDFTLKISRVEAEDLGVYYCFQASHFPRTFGGGTKLEIK
notes: Human IgG1 / kappa constant regions; also called 15D3/MRK16 monoclonal; a15D3:MRK16 antibody
For the molecule B13, the “fold decrease in affinity against the un-swapped 15D3 control” value in assay [11] is roughly 20 fold. Moreover, in assay [9], the Bmax stood at 3.94 and binding was put at a Kd of 229 nM.
